According to patent publication US20050281828A1 (published 2005):
Numbering of substitutions follows the chain as printed.

B1: IgG1k clone A10 (Fab, V domains shown)
VH: EVQLQQSGPELEKPGASVKISCKASGYSFTGYNMNWVKQSNGKSLEWIGNIDPYYGDITYNQKFKGKATLTVDKSSSTAYMQLKSLTSEDSAVYYCARTATALYTMDYWGQGTSVTVSS
VL: EIVLTQSPAIMSASLGERVTMTCTASSSVSSSYLHWYQQKPGSSPKLWIYSTSNLASGVPARFSGSGSGTSYSLTISSMEAEDAATYYCHQYHRSPQTFGGGTKLEIK
notes: phage-Fab screening
B2: IgG1k clone C7 (phage-Fab screening) (Fab, V domains shown)
VH: B1 VH with N41S, I51F, D57V
VL: EIVLTQSPAIMSASPGEKVTMTCRASSSVSSSYLHWYQQKSGASPKLWIYSTSNLASGVPARFSGSGSGTSYSLTISSVEAEDAATYYCQQYSGYPLTFGSGTKLEIK
B3: IgG1k clone B7 (Fab, V domains shown)
VH: B1 VH with N41S, I51F, D57V
VL: B2 VL
notes: phage-Fab screening
B4: IgG1k clone D8 (Fab, V domains shown)
VH: B1 VH with D57G, I58S, T59S
VL: B2 VL with L97G, S101G
notes: phage-Fab screening
B5: L-SIGN Fab clone C7 (soluble, purified) (Fab, V domains shown)
VH: B1 VH with N41S, I51F, D57V
VL: B2 VL

biological target: T1, recombinant human L-SIGN (L-SIGNFc fusion protein) (human, UniProt Q9H2X3 78-399); test: ELISA, recombinant L-SIGN
T1 construct: also called DC-SIGNR; human DC-SIGNR; not shown: Fc part of the fusion
T1 sequence (looked up): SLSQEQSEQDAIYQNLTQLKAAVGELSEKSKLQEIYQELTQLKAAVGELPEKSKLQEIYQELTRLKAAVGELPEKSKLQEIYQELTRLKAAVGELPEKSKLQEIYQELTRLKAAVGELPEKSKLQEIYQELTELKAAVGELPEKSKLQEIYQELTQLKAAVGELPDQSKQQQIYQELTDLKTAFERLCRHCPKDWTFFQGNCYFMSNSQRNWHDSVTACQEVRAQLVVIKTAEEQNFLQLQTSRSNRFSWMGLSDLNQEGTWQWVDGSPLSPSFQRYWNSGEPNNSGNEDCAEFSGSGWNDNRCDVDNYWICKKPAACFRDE

With B1 as the binder, how does the OD405 read?
Its OD405 is 2.9 OD405.

With B2 as the binder, how does the OD405 read?
The OD405 was 3.5 OD405.

B3 was tested. Which OD405 did it give?
The OD405 was 2.7 OD405.

With B4 as the binder, how does the OD405 read?
The OD405 was 2.1 OD405.

biological target: T2, recombinant human DC-SIGN (human, UniProt Q9NNX6 62-404); test: ELISA, recombinant DC-SIGN
T2 construct: Added to plates coated with anti-human Fc, so probably an Fc fusion
T2 sequence (looked up): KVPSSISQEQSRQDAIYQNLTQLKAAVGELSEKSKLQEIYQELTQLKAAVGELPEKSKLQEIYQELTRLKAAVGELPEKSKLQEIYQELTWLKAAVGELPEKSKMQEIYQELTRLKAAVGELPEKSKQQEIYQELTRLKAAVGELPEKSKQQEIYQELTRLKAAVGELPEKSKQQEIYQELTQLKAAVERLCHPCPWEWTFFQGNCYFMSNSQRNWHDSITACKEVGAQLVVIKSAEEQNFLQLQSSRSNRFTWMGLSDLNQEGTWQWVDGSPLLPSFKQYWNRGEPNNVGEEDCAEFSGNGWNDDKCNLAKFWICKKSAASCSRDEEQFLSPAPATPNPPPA

B1 was tested. Which OD405 did it give?
The OD405 was 0.1 OD405.

B2 was tested. Which OD405 did it give?
The OD405 was 0.1 OD405.

How did the OD405 turn out when B3 was run?
Its OD405 is 0.1 OD405.

How did the OD405 turn out when B4 was run?
Its OD405 is 0.1 OD405.

biological target: T3, DC-SIGN receptor on cells (K562/DC-SIGN) (human, UniProt Q9NNX6 1-404); test: flow cytometry, K562/DC-SIGN cells
T3 construct: whole, on cells
T3 sequence (looked up): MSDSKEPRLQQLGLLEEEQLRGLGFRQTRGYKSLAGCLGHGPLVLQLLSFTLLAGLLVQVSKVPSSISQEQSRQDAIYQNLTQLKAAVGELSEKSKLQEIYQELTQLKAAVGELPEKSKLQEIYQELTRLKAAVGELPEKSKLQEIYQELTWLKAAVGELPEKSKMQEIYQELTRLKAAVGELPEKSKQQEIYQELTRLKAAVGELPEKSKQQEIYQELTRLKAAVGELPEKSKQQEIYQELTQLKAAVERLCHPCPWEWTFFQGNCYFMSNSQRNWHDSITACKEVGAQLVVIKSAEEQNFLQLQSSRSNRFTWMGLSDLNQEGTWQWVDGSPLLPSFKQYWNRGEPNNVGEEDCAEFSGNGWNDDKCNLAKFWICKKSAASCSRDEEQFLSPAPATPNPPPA

Does B5 bind?
Result: no binding (tested: 20 ug/ml)

biological target: T4, L-SIGN receptor on cells (K562/L-SIGN) (human, UniProt Q9H2X3 1-399); test: flow cytometry, K562/L-SIGN cells
T4 construct: whole, on cells; also called L-SIGN on LSECs
T4 sequence (looked up): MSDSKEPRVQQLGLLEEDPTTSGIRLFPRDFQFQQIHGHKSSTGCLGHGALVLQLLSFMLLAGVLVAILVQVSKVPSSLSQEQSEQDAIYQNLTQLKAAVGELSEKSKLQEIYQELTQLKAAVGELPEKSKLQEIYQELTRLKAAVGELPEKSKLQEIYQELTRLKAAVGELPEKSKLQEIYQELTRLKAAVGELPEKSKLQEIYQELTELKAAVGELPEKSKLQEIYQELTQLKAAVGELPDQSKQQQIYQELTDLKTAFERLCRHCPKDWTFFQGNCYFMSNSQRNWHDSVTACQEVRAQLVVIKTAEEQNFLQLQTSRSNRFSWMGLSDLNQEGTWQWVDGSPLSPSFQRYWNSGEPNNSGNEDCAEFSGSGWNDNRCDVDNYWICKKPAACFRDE

Which “Geo. Mean Fluorescence” value does the source give for B1 here?
The value was 21.3.

How did the “Geo. Mean Fluorescence” value turn out when B2 was run?
The value was 101.

For B3, which “Geo. Mean Fluorescence” value is on record?
The value was 90.9.

Which “Geo. Mean Fluorescence” value does the source give for B4 here?
Its value is 17.3.
